B1: TPR t1 (parent)
chain: GACCAAUCUGCCCUCAGAGCUCGAGAACAUCUUCGGAUGCAGAGGAGGCAGGCUUCGGUGGCGCGAUAGCGCCAACGUCCUCAACCUCCAAUGCAUCCCACCACAUGAUGAUGCCUGAAGAGCCUUGGUUUUUUG

Variants of: B1
Test: polymerase ribozyme fitness, log enrichment relative to wild type (log ratio); higher = more active; in vitro selection for triplet polymerase activity
Method in brief: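 Only genotypes with ≥10 input reads and ≥1 read per output were kept after Illumina sequencing of input and output libraries. These libraries were PCR-built, transcribed mutants of each subunit of a heterodimeric triplet polymerase ribozyme, each put through one triplicate in vitro selection round with frozen incubation at −7 °C, gel excision of extended constructs, streptavidin-bead capture and RT-PCR. Fitness is a logarithmic ratio of genotype enrichment to wild-type enrichment, from inverse-variance-weighted replicate averages, with the logarithm in base 2.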

Variant	polymerase ribozyme fitness (log ratio)
GACCAAUCUGCUCUCAGAGCUCGAGAACAUCUUCGGAUGCAGAGGAGGCAGGCUUCGGUGGCGCGAUAGCGCCAACGUCCUCAAUCUCCAAUGCCUCCCACCACAUGAUGAUGCCUGAAGAGCCUUGGUUUUUUG [C12U C85U A95C]	-1.78
GACCAAUCUGCCCUAAGAGCUCGAGAACAUCUUCGGAUGCAGAGGAGGCAGGCUUCGGUGGCGCGAUAUCGCCAACGUCCUCAACCUUCAAUGCAUCCCACCACAUGAUGAUGCCUGAAGAGCCCUGGUUUUUUG [C15A G69U C88U U125C]	-3.27
GACCAAUCUGCCCUCAGAGCUCGAGAACAUCUUCGAAUGCAGAGGAGGCAGGCUUCGGUGGCGCGAUAGCGCCAACGUCCUCAACCUCCAAUGCAUCCCACCACAUGAUAAUGCCUGAAGAGCCUUGGUUUUUUG [G36A G110A]	-2.64
GUCCAAUCUCCCCUCAGAGCUCGAGAACAUCUUCGGAUGCAGAGGAGGCAGGCUUCGGUGGCGCGAUAGCUCCAACGUCCUCAACCUCCAAUGCAUCCCACCACAUGAUGAUGCCUGAAGCGCCUUGGUUUUUUG [A2U G10C G71U A121C]	-1.06
GACCAAUCUGCCCUCAGAGCUCGAGAACAUCUUCGGAUGCAGAGGAGGCUGGCUUCGGUGGCGCGAUAGCGCCAACGUCCUCAACCUCCAAAGCAUCCCACCACAUGAUGAUGCCUGAAGAGCCUUGGUUUUUUG [A50U U92A]	-5.22
GCCCAAUCUGCCCUCAGAGCUCGAGAACAUCUUCGGUUGCAGAGGAGACAGGCAUCGGUGGCGCGAUAGCGCAAACGUGCUCAACCUCCAAUGCAUCCCACCACAUGAUGAUGCCUGAUGAGCCUUGUUUUUUUG [A2C A37U G48A U54A C73A C79G A119U G128U]	-5.61
GACCAAUCUGCCCUCAGAGCUCGAGAACAUCUUCGGAUGCAGAGGAGGCAGGCUUCGGUGGCUCGAUAGCGCCAACGUCCUCAACCUCCAAUGCAUCCCACCACAUGAUGAUGCCUGAAGAGCCAUGGUUUUUUG [G63U U125A]	-1.51
GACCAAUCUGCCCUCAAAGCUCGAGAACAUCUUCGGAUGCAGAGGAGGCAGGCUUCGGUGACGUGAUAGCGCUACCGUCCUCAACCUCCAAUGCAUCCCACCACAUGAUGAUGCCUGAAGAGCCUUGGUUUUUUG [G17A G61A C64U C73U A75C]	-4.03
GACCAAUCUGCCCUCAGAGCUCGAGAACAUCUUCGGAUGCAGAGGAGGCAGGCUUCGGUGGCGCGAUAGCGCCAACGUCCUCAACCUCCAAUGCAUCCCACCACAUGAUGAUGCCUGAAGAGCAUUGGUUGUUUG [C124A U131G]	1.63
GACCAAUCUGCCCUCAGAGCUCGAGAAAAUCUUCGGAUGCAGGGGAGGCAUGCUUCGGUGGCGCGAUAGCGCCAACGUCCUCAACCUCCGAUGCAUCCCACCACAUGAUAAUGCCUGAAGAGCCUUGGUUUUUUG [C28A A43G G51U A90G G110A]	-4.93
GACCAAUCUGCCCUAAGAGCUCGAGAACAUCUUCGGAUGCAGAGGAGGCAGGCUUAGGUGGCGCGAUAGCGCCAACGUCCUCAACCUCCAAUGCAUCCCACCACAUGAUGAUGCCUUAAGAGCCUUGGUUUUUUG [C15A C56A G117U]	0.157
GACCAAUCUGCCCUCAGAGCUCGAGAACAUCUUCGGAUGCAGAGGAGGCAGGCUUCGGUGGCGCGAUAGCACCAACGUCCGCUACCUCCAAUGCAUCCCACCACAUGAUGAUGCCUGAAGAGCCUUGGUUUUUUG [G71A U81G A83U]	-6.59
GACCAAUCGGCCCUCAGAGCCCGAGAACAUCUUCGGAUGCAGAGGAGGCAGGCUUCGGUGGCGCGAUAGUGCCAACGUCCUCAACCUCCAAUGCAUCCCACCACAUGAUGAUGCCUGAAGAGCCUUGGUUUUUUG [U9G U21C C70U]	-1.31
GACCAAUCUGCCCUCAGAGCUCGAGAACAUUUUCGGAUGCAGAUGAGGCAGGCUUCGGUGGCGCGAUAGCGCCAACGUCCUCAACCUCCAAUGCAUCCCACCACAUGAUGAUGCCUGAAGAGCCUUGGUUUUUUG [C31U G44U]	-5.33
GACCAAUCUGCCCUCAGAGCUCGAGAACAUCUUCGGAUGCAGAGGAGGCAUGCUUCGGUGCCGCGAUAGCGCCAACGUCCUCAACCUCCAAUGCAUCCCACCACAUGAUGAUGCCUGAAGAGCCUUGGUUUUGUG [G51U G61C U133G]	-2.81
GACCAAUCUGCCCUCAGAGCUCGAGAAUAUCUUCGGAUGCAGAGGAGGCAGGCUCCGGCGGCGCGAUAGCGCCAACGUCCUCAACCUCCAAUGCAUCCCACCACAUGAUGAUGCCUGAAGAGCCUUGGUUUUUUG [C28U U55C U59C]	-3.17
GACCAAUCUGACCUCAGAGCUCGAGAACAUCUUCGGAUGAAGAGGAGGCAGACUUCGGUGGCGCGAUAGCGCCAACGUCCUCAACCUCCAAAGCAUCCCACCACAUGAUGAUGCCUGAAGAGCCUUGGUUUUUUG [C11A C40A G52A U92A]	-3.14
GACCAAUCUGCCCUCAGCGCUCGAGAACAUCUUCGGAUGCAGAGGAGGCAGGCUUCGGUGGCGCGAUAGCGCCAACGUCCUCAACCUCGAAUGCAUCCCACCACAAGAUGAUGCCUGAAGAGCCUUGGUUUUUUG [A18C C89G U106A]	-2.89
GACCAAUCUGCCCUCAGCGCUCGAGAACAUCUUCGGAUGCAGAGGAGGCAGGCUUCGGUGGCGCGAUAGCGCCCACGUCCUCACCCUCCAAUGCAUCCCACCACAUGAUGAUGCUUGAAGAGCCUUGGUUUUUUG [A18C A74C A84C C115U]	-1.56
GACCAAUCUGCCCUCAGAGCUCGAGAACAUCUUCGGAUGCAGAGGAGGCAGGCUUCGGUGGCGCGAUAGCGCCAACGUCCUCAUCCUCCAAUGCAACCGACCACAUGAUGAUGACUGAAGAGCCUUGGUUUUUUG [A84U U96A C99G C114A]	-6.17
GACCAAUCUGCCCUCAGAGCUCGAGAACAUCUUCGGAUGCAGAGGAAGCAGGCUUCGGUGGCGCGAUACCGCUAACGUCCUCAACCUCCAAUGCAUCCCACCACAAGAUGAUGCCUGAAGAGCCUUGGUUUUUUG [G47A G69C C73U U106A]	-2.08

Variant	polymerase ribozyme fitness (log ratio)
GACCAAUCAGCCCUCAGAGCUCGAGAGCAUCUUCGGAUGCAGAGGAGGCAGGCUUCGGUGGCGCGAUAGCGUCAACGUCCUCAACCUCCAAUGCAUCCCACCACAUGAUGAUGUCUGAAGAGCCUUGGUUUUUUG [U9A A27G C72U C114U]	-1.39
GACCAAUCUGCCCUCAGAGCUCGAGUACAUCUUCGGAUGCAGAGGAGGCAGGCUUCGGUGGCGCGAUAGCGCCAACGUCCUCAACAUCCAAUGCAUCCCACCACAUGAUAAUGCCUGAAGAGCCUUGGUUUUUUG [A26U C86A G110A]	-5.7
GACCAAUCUGCCCUCAGAGCUCGAGAACAUCUUCGGAUGCAGAGGAGGCAGGCUUCGGUGGCGCGAUAGCGCCAACGUCACCAACCUCCAAUGCAUCCCACCACAUGAUGAUGCCUGAAGAGCCUUGGUUUUUUG [C80A U81C]	-4.02
GACCAAUCUGCCCUCAGAGCUCGAGAACAUCUUCGGAUGCAGAGGAGGCCGGCUUCGGUGGCGCGAUAGCGCCAACGUCCUCAACCUCCAAUGCAUCCCACCACAUGAUGAUGCAUGAAGAGCCUUGGUUUUUUG [A50C C115A]	-1.39
GACCAAUCUGCCCUCAGAGCUCGAGAACAUCUUCGGAUGCAGAGGAGGCAGGUUUCGGUGGCGCGAUAGCGCCAACGUCCUCAACCUCCAAUGCCUCCCACCACAUGAUGAUGCAUGAAGAGCCUUGGUUUUUUG [C53U A95C C115A]	0.802
GACCAAUCUGCAAUCAGAGCUCGAGAACAUCUUCGGAUGCAGAGGAGGCAGGCUUCGGUGGUGCGAUAGCGCCAACGGCCUCAACCUCCAAUGCAUCCCACCACAUGAUGAUGCGUGAAGAGCGUUUGUUUUUUG [C12A C13A C62U U78G C115G C124G G127U]	-6.43
GACCAAUCGGCCCUCAGAGCUCGAGAACAUCUUCGGAUGCAGAGGAGGCAGGCUUCGGUGGCGCGAUAGCGCCAACGUCUUCAACCUCCAAUGCAUCCCACCACACGAUGAUGCCUGAAGAGCCUUGGUUUUUUG [U9G C80U U106C]	0.49
GACCAAUCUGCCCUCAGAGCUCGAGAACAUCUUCGGAUGCAAAGGAGGCAGGCUUCGGUGGCGCGAUAGCGCCAACGUCCUCAACCUCCAAUGCAUCCCACCACAUGAUGAUGCCUGAGGAGCCUUGGUUUUUUG [G42A A119G]	-0.491
GACCAAUCUGCCCUCAGAGCUCGAGAACAUCUUCGGAUGCAGAGGAGGCAGGCUUCGGUGGCGCGAUAGCGCCAACGCCCUCAACCUCCAAUGCAUCCCACCUCAUGAUGAUGCCUGAAGAGCCUUGGUUUUUUG [U78C A103U]	-5.46
GACCAAUCUGCCCUCAGAGCUUGAGAACAUCUUCGGUUGCAGAGGAGGCAGGCUUUGGUGGCGCGAUAGCGCCAACGUCCUCAACCUCCAAUGCAUCCCACCACAUGAUGAUGCCUGAAGAGCCUUGGUUUUUUG [C22U A37U C56U]	-5.01
GACCAAUCUGCCCUCAGAGCUCGAGAACAUCUUCGGAUGCGGAGGAGGCAGGCUUCGGUGGCGCGAUAGCGCUAACGUCCUCAACCUCCAAUGCAUCCCACCACAUGAUGAUGCCUGAAGAGCCUUGGUUUUUUG [A41G C73U]	-0.342
GACCAAUCUGCCCUCAGAGCUCGAGAAUAUCUUCGGAUGCAGAGGAGGCAGGCUUCGGUGGCGCGAUAGCGCCAACGUCCUCAACUUCCAAUGCAUCCCACCACAUGAUGAUGCCUGAAGAGCCUUGGUUUUUUG [C28U C86U]	-2.31
GACCAAUCUGCCCUCAGAGCUCGAGAACAUCUUCGGAUGCAGAGGAGGCAGGCUUCGGUUGCGCGAUAGCGCCAACGUCCUCAACCUCCAAUGCAUCGCACCACAUGAUGAUGCCUGAAGAGCCUUGGUUUUUUG [G60U C98G]	-5.35
GACCAAUCUGCCCUCAGAGCUCGAGAACAUCUUCGGAUGCAGAGGAGGCAGGGUUCGGUGGCGCGAUAGCACCAACGUCCUCAACCUCCAAUCCAUCCCACCACAUGAUGAUGCCUGAAGAGCCUUGGUUUUUUG [C53G G71A G93C]	-1.51
GACCAAUCUGCCCUCAGAGCUCGAGAACAUCUUCGGAUGCAGAAGAGGCAGGCUUCGGUGGCGCGAUAGCGGCAACGUCCUCAACCUCCAAUGCAUCCCACCACAUGAUGAUGCCUGAGGAGCCCUGGUUUUUUG [G44A C72G A119G U125C]	-2.76
GACCAAUCUGCCCUCAGAGCUCGAGAACAUCUUCGGAUGCAGAGGAGGCGGGAUUCGGUGGCGCGAUAGCGCUAACGUCCUCAACCUCCAAUGCAUCCCACCACAUGAUGAUGCCUGAAGAGCCUUGGUUUUUUG [A50G C53A C73U]	0.0786
GACCAAUCUGCUCUCAGAGCUCGAGAACAUCUUAGGAUGCAGAGGAGGCAGGCUUCGGUGGCCCGAUAGCGCCAACGUCCUCAACCUCCAAUGCAUCCCACCACAUGAUGAUGCCUGAAGAGCCUUGGUUUUUUG [C12U C34A G63C]	-3.05
GACCAAUCUGCCCUCAUAGCUCGAGAACAUCUUCGGAUGCAGAGGAGGCAGGCUUCGGUGGCGCGAUAGCGCCAACGUCCUCAAACUCCAAUGCAUCCCACCACAUGAUGAUGCCUGAAGAGCCUUGGUUUUUUG [G17U C85A]	-3.6
GACCAAUCUGCCCUCAGAGCUCGAGAACAUCUUCGGAUGCAGAGGAGGCAGGCUUCGGUGGCGCGAUAGCGCCAACGUCCUCAACCUCCAAUGCAUCCCUCCACAUGAUGAUGCCUUAAGAGCCUUGGUUUUUUG [A100U G117U]	-3.66
GACCAAUCUGCCCUCAGAGCUCGAGACCAUCUUCUGAUGCAGAGGAGGCAGGCUUCGGUGGCGUGAUAGCGCCAACGUCUUCAACCUCCAAUGCAUCCCACCACAUGAAGAUGCCUGAAGAGCCUUGGUUUUUUG [A27C G35U C64U C80U U109A]	-7.59
GACCAAUCUGCCCUCAGAGCUCGAGAACAUCUUCGGAUGCAGAGGAGGCAGGCUUCGGUGGCGCGAUAGCGCCAACGUCCUCAACCUCCAAUGCAUCCCACCACAUGAUUAUGCCUUAAGAGCCUUGGUUUUUUG [G110U G117U]	-4.2
